From patent publication US20240409645A1 (DUALYX, published 2024)

T1: human IL-2Rβ (human, UniProt P14784 27-240, limits assumed)
T1 construct: Recombinant human IL-2Rβ protein, coated on ELISA plates or immobilized on a CM5 chip; also called hu IL-2R; interleukin 2 receptor β-chain
T1 sequence: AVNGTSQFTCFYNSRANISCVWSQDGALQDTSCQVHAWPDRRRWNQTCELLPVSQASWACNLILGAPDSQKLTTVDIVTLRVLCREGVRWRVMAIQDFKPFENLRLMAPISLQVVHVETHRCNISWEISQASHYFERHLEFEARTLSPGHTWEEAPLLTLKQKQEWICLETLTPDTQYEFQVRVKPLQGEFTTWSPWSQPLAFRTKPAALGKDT

T2: human IL-2Rγ (common cytokine receptor γ-chain) (human, UniProt P31785 23-262, limits assumed)
T2 construct: Recombinant protein coated on the plate or immobilised on a CM5 chip; also called hu IL-2R; CD132
T2 sequence: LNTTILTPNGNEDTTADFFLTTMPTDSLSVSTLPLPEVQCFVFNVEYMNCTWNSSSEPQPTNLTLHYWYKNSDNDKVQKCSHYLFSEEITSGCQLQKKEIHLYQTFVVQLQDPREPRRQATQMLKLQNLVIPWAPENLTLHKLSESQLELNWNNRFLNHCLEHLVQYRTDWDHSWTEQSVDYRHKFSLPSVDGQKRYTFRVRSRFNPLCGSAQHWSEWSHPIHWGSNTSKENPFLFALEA

T3: mouse IL-2Rγ (mouse, UniProt P34902 23-263)
T3 construct: also called mo IL-2R
T3 sequence (looked up): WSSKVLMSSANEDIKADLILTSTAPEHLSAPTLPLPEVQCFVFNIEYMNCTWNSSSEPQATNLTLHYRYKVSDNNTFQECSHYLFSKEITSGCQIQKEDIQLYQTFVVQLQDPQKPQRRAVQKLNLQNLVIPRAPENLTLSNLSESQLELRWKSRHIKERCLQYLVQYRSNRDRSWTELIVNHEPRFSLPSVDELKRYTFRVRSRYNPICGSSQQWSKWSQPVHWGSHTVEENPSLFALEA


Legend:
[1] = target: T1, human IL-2Rβ; experiment: SPR off-rate ranking of P.E., human IL-2Rβ immobilized
Experimental: (§1) SPR was performed to determine dissociation rates using Biacore 3000 instrument (GE Healthcare). Briefly, human and mouse IL-2R proteins were immobilized on carboxylmethyl dextran sensor chip (CM5) at approximately 2500 RUs using amine coupling in acetate buffer (GE Healthcare). The VHH-containing P.E. were loaded with a flow rate of 30 uL/min and the off-rates were measured over a 120s period.

[2] = target: T1, human IL-2Rβ; experiment: P.E. binding ELISA, human IL-2Rβ coated
Experimental: In a binding ELISA, human or mouse IL-2Rα, IL-2Rβ and IL-2Rγ proteins were coated directly on maxisorp microtiter plates overnight at 4° C. Free binding sites were blocked using 4% Marvel in PBS for 1 hour. Next, 1:5 dilution of P.E. in 1% Marvel/PBS were added to wells and incubated for 1 hour. […] Binding specificity was determined based on O.D. at 450 nm values compared to negative controls.

[3] = target: T2, human IL-2Rγ (common cytokine receptor …); experiment: SPR off-rate ranking, periplasmic extract on immobilised protein
Experimental: as §1

[4] = target: T3, mouse IL-2Rγ; experiment: as above
Experimental: as §1

[5] = target: T2, human IL-2Rγ (common cytokine receptor …); experiment: PE binding ELISA, periplasmic extract on coated protein
Summary of the method: (§2)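 Direct-coat ELISA: receptor protein o/n 4° C → 4% Marvel/PBS block 1 h → P.E. 1:5 in 1% Marvel/PBS, 1 h → OD450 vs neg. controls.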

[6] = target: T3, mouse IL-2Rγ; experiment: as above
Summary of the method: as §2

Row | Binder | koff [1] [s⁻¹] | OD450 nm (P.E. binding ELISA) [2] [OD450 nm] | koff [3] [s⁻¹] | koff [4] [s⁻¹] | OD (PE binding ELISA) [5] [OD450 nm] | OD (PE binding ELISA) [6] [OD450 nm]
1 | FJ1427_P035MP06C10 (VHH, Soluble VHH in periplasmic extract (P.E.); also called Clone nr; 555) VHH: QVQLVESGGGLVQAGGSLRLSCAVSGDVFVRYTMAWFRQAPGKEREFVASVTDSGRTTEYVDSVKGRFTVSRDNAKNTAYLQMNNLKPEDTAVYYCAANTDYFQIRSLDLNTWGQGTQVTVSS | 0.000208 | 0.358 |  |  |  | 
2 | FJ1427_P035MP04D01 (VHH, VHH in periplasmic extract; also called clone nr) VHH: QVQLVESGGGLVQAGGSLRLSCAASGRTLSRYAMGWFRQAPGKEREFVTANSWGGDTYYADSVQGRFTFSRDNAKNTVYLQMNSLQPEDTAVYYCAAAPTSFATTAYSSSNSYAYWGQGTQVTVSS |  |  | 0.00182 | 0.113 | 1.02 | 0.066
3 | 28-MP04D02 (VHH, VHH in periplasmic extract; also called FJ1427_P035MP04D02; clone nr; 300) VHH: QVQLVESGGGLVQAGGSLRLSCAASGRTLSRYAMGWFRQAPGKEREFVTANSWGGDTYYADSVQGRFTFSRDNAKNTVYLQMNSLQPEDTAVYYCAAAPTSFATTAYSGSNSYAYWGQGTQVTVSS |  |  | 0.0088 | 0.319 | 0.782 | 0.054
4 | 34-MP04A12 (VHH, VHH in periplasmic extract; also called FJ1427_P035MP04A12; clone nr) VHH: QVQLVESGGGLVQAGSSLRLSCAASGRTLSRLAMGWFRQAPGKEREFVAVNSWGGDTFYADSVEGRFTYSRDNAKSAVYLQMNSLQPEDTAVYYCAAAPTSFATTAYSSSNSYAYWGQGAQVTVSS |  |  | 0.000333 | 0.00809 | 1.3 | 3.6
5 | 37-MP07F09 (VHH, VHH in periplasmic extract; also called FJ1427_P035MP07F09; clone nr) VHH: QVQLVESGGGLVQAGGSLRLSCAASGRTLSRYAMGWFRQAPGKEREYVAIDSWGGDTFYADSVEGRFTFSRDNAKNEVYLQMNSLQPEDTAVYYCAGAPTSFATTAYSSSNSYRYWGQGTQVTVSS |  |  | 0.00126 | 0.007 | 1.81 | 1.49
6 | FJ1427_P035MP04A01 (VHH, VHH in periplasmic extract; also called clone nr) VHH: EVQLVESGGGLVQAGGSLRLSCAASGRTLSRYAMGWFRQAPGKEREFVTANSWGGDTYYADSVQGRFTFSRDNAKNTVYLQMNSLQPEDTAVYYCAAAPTSFATTAYSSSNSYAYWGQGTQVTVSS |  |  | 0.00156 | 0.132 | 0.867 | 0.06
7 | FJ1427_P035MP04A06 (VHH, VHH in periplasmic extract; also called clone nr) VHH: QVQLVESGGGLVQPGGSLRLSCAASGRTLSRYAMGWFRQAPGKEREFVTANSWGGDTYYADSVQGRFTFSRDNAKNTVYLQMNSLQPEDTAVYYCAAAPTSFATTAYSSSNSYAYWGQGTQVTVSS |  |  | 0.00283 | 0.113 | 0.898 | 0.063
8 | FJ1427_P035MP04B05 (VHH, VHH in periplasmic extract; also called clone nr) VHH: EVQLVESGGGLVQAGGSLRLSCAASGRTLSRYAMGWFRQAPGKEREFVTANSWGGDTYYADSVQGRFTFSRDNAKNTVYLQMNSLQPEDTAVYYCAAAPTSFATTAYSSSNSYAYWGQGTQVTVSS |  |  | 0.00292 | 0.138 | 1.49 | 0.063
9 | FJ1427_P035MP04B08 (VHH, VHH in periplasmic extract; also called clone nr) VHH: QVQLVESGGGLVQAGGSLRLSCVASGRTLSRYAMGWFRQAPGKEREFVTANSWGGDTYYADSVQGRFTFSRDNAKNTVYLQMNSLQPEDTAVYYCAAAPTSFATTAYSSSNSYAYWGQGTQVTVSS |  |  | 0.00205 | 0.113 | 1.44 | 0.075
10 | FJ1427_P035MP04C04 (VHH, VHH in periplasmic extract; also called clone nr) VHH: EVQLVESGGGLVQAGGSLRLSCAASGRTLSRYAMGWFRQAPGKEREFVTANSWGGDTYYADSVQGRFTFSRDNAKNTVYLQMNSLQPEDTAVYYCAAAPTSFATTAYSSSNSYAYWGQGTQVTVSS |  |  | 0.00214 | 0.151 | 1.43 | 0.063
11 | 31-MP04E03 (VHH, VHH in periplasmic extract; also called FJ1427_P035MP04E03; clone nr) VHH: QVQLVESGGGLVQAGGSLRLSCTGYGGAFTGYALGWFRQAPGKEREFVARINWSGSFTYYASSVKGRFTISRDNAKNTMYLQMNNLKPEDTAVYYCAADNPSTLATDYDNWGQGTQVTVSS |  |  |  | 0.283 |  | 0.495
